Experimental data: US6784337

Assays:
trypsin = experiment: cell-based or functional assay
Papain = Papain (UniProt P00784); experiment: cell-based or functional assay
UniProt P00784, sequence (P00784 134-345 limits assumed): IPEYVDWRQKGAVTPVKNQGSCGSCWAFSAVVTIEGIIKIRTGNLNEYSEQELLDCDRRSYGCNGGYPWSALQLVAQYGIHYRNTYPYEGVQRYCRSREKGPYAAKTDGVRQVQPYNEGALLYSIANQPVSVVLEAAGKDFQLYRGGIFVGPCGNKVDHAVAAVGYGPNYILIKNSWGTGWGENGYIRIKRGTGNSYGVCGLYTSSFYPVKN

Substance	inhibition of trypsin activity (relative inhibition assay, substrate N-Cbz-Phe-Arg-7-amido-4-methylcoumarin) (trypsin) [%]	inhibition of papain activity (relative inhibition assay, substrate N-Cbz-Phe-Arg-7-amido-4-methylcoumarin) (Papain) [%]
Oc-IΔD86/PsMTa/CpTI fusion protein (products of the construct) (from UniProt P09229 39-140)	95	95
Oc-IΔD86/go/CpTI fusion protein (from UniProt P09229 39-140)	95	95
